Measurements as given in US20250011363A1, “OPTIMIZED SHORTENED PEPTIDE THAT BINDS TO ACETYLCHOLINE RECEPTOR, AND USE THEREOF” (SKINMED CO., LTD., priority 2021, published 2025).

biological target: acetylcholine receptor; assay: SPR, peptide at 10 uM

Row | Binder | Binding affinity [RU]
1 | RTKMRR [6mer-2-1101] | 38
2 | REDWRR [6mer-2-1099] | 21
3 | KHKGKR [6mer-2-1102] | 32
4 | RTAPKK [6mer-2-1100] | 24

biological target: acetylcholine receptor; assay: SPR, AchR immobilized on chip, peptide 10 uM

Row | Binder | Binding affinity (RU)
5 | RVLSK [5mer-182] | 70
6 | KVRSR [5mer-488] | 58
7 | KVVTK [5mer-495] | 52
8 | RWYRK [5mer-169] | 61
9 | RVRCR [5mer-191] | 75
10 | KSIRR [5mer-493] | 57
11 | RVVLR [5mer-492] | 80
12 | KSYSR [5mer-489] | 63
13 | RRIYR [5mer-467] | 83
14 | RRVRK [5mer-466] | 53
15 | KWFSK [5mer-188] | 82
16 | KRRCR [5mer-497] | 76
17 | KVVSR [5mer-195] | 82
18 | KSICK [5mer-164] | 54
19 | RWFRK [5mer-465] | 57
20 | KQFRK [5mer-167] | 64
21 | RGYQR [5mer-162] | 51
22 | RRVLK [5mer-178] | 87
23 | KSLCK [5mer-163] | 61
24 | KSRRR [5mer-469] | 69
25 | RSVSR [5mer-173] | 59
26 | RWYLR [5mer-480] | 75
27 | RQFLR [5mer-474] | 80
28 | RSFQK [5mer-484] | 51
29 | KQRYR [5mer-180] | 74

Row | Binder | Binding affinity (RU)
30 | RSLLK [5mer-181] | 72
31 | KQIRR [5mer-491] | 81
32 | KLISK [5mer-498] | 53
33 | KRVYR [5mer-183] | 64
34 | KGIQK [5mer-496] | 81
35 | RGYLR [5mer-471] | 69
36 | KGRQR [5mer-174] | 59
37 | RWVCR [5mer-187] | 74
38 | KSFQR [5mer-166] | 55
39 | RVLYK [5mer-176] | 52
40 | KWRSK [5mer-165] | 56
41 | KRLQR [5mer-186] | 64
42 | KQLLK [5mer-461] | 74
43 | KRQRK [5mer-485] | 58
44 | RLYTK [5mer-179] | 55
45 | RLVQR [5mer-473] | 75
46 | RWRSR [5mer-190] | 84
47 | RSRRR [5mer-172] | 82
48 | RSRQK [5mer-197] | 68
49 | RWQLK [5mer-175] | 63
50 | KLFSK [5mer-168] | 84
51 | RSYYR [5mer-196] | 69
52 | KWYTK [5mer-463] | 52
53 | RRFCK [5mer-475] | 56
54 | RWLLK [5mer-490] | 60

Row | Binder | Binding affinity (RU)
55 | RVIRK [5mer-193] | 80
56 | KWQSK [5mer-194] | 84
57 | KLISR [5mer-198] | 74
58 | KLQCR [5mer-184] | 68
59 | RGVTR [5mer-464] | 57
60 | KSFRK [5mer-192] | 75
61 | KGYSR [5mer-477] | 58
62 | RWQSK [5mer-462] | 69
63 | RVQTK [5mer-478] | 75
64 | RWQCK [5mer-468] | 54
65 | RLVTK [5mer-487] | 62
66 | RWVRK [5mer-177] | 77
67 | RSICK [5mer-476] | 70
68 | RRYRR [5mer-185] | 86
69 | KSYCK [5mer-481] | 78
70 | RLICK [5mer-170] | 62
71 | RWLQR [5mer-486] | 53
72 | KQFCK [5mer-482] | 75
73 | RRYRK [5mer-472] | 55
74 | RLLQK [5mer-189] | 65
75 | KSIQR [5mer-171] | 55
76 | RSISR [5mer-483] | 51
77 | KQRSK [5mer-470] | 57
78 | RQYYK [5mer-479] | 70
79 | RGFCK [5mer-494] | 54
